Measured values taken from patent US7537764.

What was measured:
[1] = molecular target: WNV-like particles with E protein mutation A365V (West Nile virus strain 382-99) (UniProt Q9Q6P4)
[2] = molecular target: West Nile virus strain USA99b (strain 385-99), whole virus (West Nile virus strain 385-99 (USA99b)); assay: ELISA on irradiated WNV; antibody diluted 1:25
[3] = molecular target: West Nile virus strain USA99b (strain 385-99), whole virus (West Nile virus strain 385-99 (USA99b)); assay: ELISA on irradiated WNV; antibody diluted 1:5
[4] = molecular target: West Nile virus strain USA99b (strain 385-99), whole virus (West Nile virus strain 385-99 (USA99b)); assay: SPR (BIAcore3000), WNV captured via immobilized CR4283, IgG injected, bivalent analyte model, average of duplicates
[5] = molecular target: West Nile virus strain USA99b (strain 385-99), whole virus (West Nile virus strain 385-99 (USA99b)); assay: ELISA on irradiated WNV; antibody diluted 1:125
[6] = molecular target: West Nile virus strain USA99b (strain 385-99), whole virus (West Nile virus strain 385-99 (USA99b)); assay: ELISA on irradiated WNV; antibody at 20.000 µg/ml

Question: For “WNV-E protein specific murine antibody 7H2”, which fold binding against wild-type VLP [1] is on record?
Answer: 2 fold

Question: What about the OD 492 nm [2] of the same substance?
Answer: 2.12 OD

Question: And the OD 492 nm [3]?
Answer: 2.09 OD

Question: What about the Kd [4] of the same substance?
Answer: 0.32 nM

Question: What about the OD 492 nm [5] of the same substance?
Answer: 2.13 OD

Question: For “anti-rabies virus antibody (negative control)”, which OD 492 nm [2] is on record?
Answer: 0.056 OD

Question: And the OD 492 nm [3]?
Answer: 0.062 OD

Question: What about the OD 492 nm [6] of the same substance?
Answer: 0.051 OD

Question: What about the OD 492 nm [5] of the same substance?
Answer: 0.046 OD
